Reference: US20100151566A1 (published 2010)

B3: scFv 2H1 (scFv)
scFv: QQVQLVQSGAEVKKPGESLKISCKGSGYSFTSYWIGWVRQMPGKGLEWMGIIYPGDSDTRYSPSFQGQVTISADKSISTAYLQWSSLKASDTAMYYCARLVVRDTEIWGQGTMVTVSSAPQAKSSGSGSESKVDQAVVTQEPSLTVSPGGTVTLTCASSIGAVTSGNYPNWFQQRPGQPPRALIYSTSNKHSWTPARFSGSLLGGKAALTLSGAQPEDEAEYYCLLSYSGARPVFGGGTKLTVLGAAAGSEQKLISEEDLNSHHHHHH
notes: Made in E. coli from pACR.1-scFv 2H1, purified by IMAC; also called scFv 2H1 fragment; bacterial scFv 2H1

Experiments:
scFv 2H1 = target: B3; assay: phage ELISA on coated scFv 2H1
[1] = target: T1, Isoform 120 of mouse VEGF-A (R&D) (mouse, UniProt Q00731-3 27-146); assay: phage ELISA; + means OD at least 5 times the negative control
T1 construct: also called isoform 120 of murine VEGF
T1 sequence (looked up): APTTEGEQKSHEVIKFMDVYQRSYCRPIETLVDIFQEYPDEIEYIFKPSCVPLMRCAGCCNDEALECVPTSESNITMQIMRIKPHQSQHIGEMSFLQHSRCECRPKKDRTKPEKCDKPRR

[2] = target: T1, Isoform 120 of mouse VEGF-A (R&D); assay: ELISA on coated antigen (Table 6)
[3] = target: T1, Isoform 120 of mouse VEGF-A (R&D); assay: ELISA on coated antigen (Table 7)

B1: peptide CCRTLMLLQYHR displayed in filamentous phage (peptide)
peptide: CCRTLMLLQYHR
notes: Tested as phage; also called peptide phage clones
Q: Does B1 bind (scFv 2H1)?
A: binds

B2: phage clone 2H1-F (scFv)
scFv: QQVQLVQSGAEVKKPGESLKISCKGSGYSFTSYWIGWVRQMPGKGLEWMGIIYPGDSDTRYSPSFQGQVTISADKSISTAYLQWSSLKASDTAMYYCARLVVRDTEIWGQGTMVTVSSAPQAKSSGSGSESKVDQAVVTQEPSLTVSPGGTVTLTCASSIGAVTSGNYPNWFQQRPGQPPRALIYSTSNKHSWTPARFSGSLLGGKAALTLSGAQPEDEAEYYCLLSYSGARPVFGGGTKLTVLG
modifications: Displayed on filamentous phage, fused to a coat protein that the letters do not carry.
notes: Tested as phage; also called scFv 2H1-F; original phage scFv (2H1-F); not shown: phage coat protein of the phagemid display format, with any tag or junction residues before it
Q: Does B2 bind [1]?
A: no binding

Q: Does B3 bind [2]?
A: no binding (tested: 20 µg/mL)

B4: Fab 2H1-32 (Fab, V domains shown)
VH: QVQLVQSGAEVKKPGESLKISCKGSGYSFTSYWIGWVRQMPGKGLEWMGIIYPGDSDTRYSPSFQGQVTISADKSISTAYLQWSSLKASDTAMYYCARLVVRDTEIWGQGTMVTVSS
VL: QAVVTQEPSLTVSPGGTVTLTCASSIGAVTSGNYPNWFQQRPGQPPRALIYSTSNKHSWTPARFSGSLLGGKAALTLSGAQPEDEAEYYCLLSYSGARPVFGGGTKLTVLG
notes: Made in E. coli, purified by IMAC, purity close to 85%; also called Fab fragment 2H1-32; Fab produced in E. coli
Q: Does B4 bind [3]?
A: no binding (tested: 20 µg/mL)
